The results in this text go back to patent US20220056104A1 (Janssen / Centocor, published 2022).

Where a chain is given by its changes, count along the chain named. Names and notes keep the numbering of the source.

The chains are these.
T1: DcR3 (UniProt O95407 30-300, limits assumed)
T1 construct: the construct is not described; also called decoy receptor DcR3; TNFRSF6B
T1 sequence (looked up): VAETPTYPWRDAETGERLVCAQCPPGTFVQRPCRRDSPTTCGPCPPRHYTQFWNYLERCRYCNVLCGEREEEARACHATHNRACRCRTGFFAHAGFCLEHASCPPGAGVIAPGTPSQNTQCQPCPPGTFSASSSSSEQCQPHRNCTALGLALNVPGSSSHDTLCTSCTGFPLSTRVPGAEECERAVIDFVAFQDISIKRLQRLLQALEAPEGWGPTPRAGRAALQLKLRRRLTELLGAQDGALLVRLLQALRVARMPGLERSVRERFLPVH

T2: Recombinant DR3-Fc (R&D Systems, cat. #943-D3) (UniProt Q93038 25-199, limits assumed)
T2 construct: dimeric MW~92 kDa; also called DR3 receptor; Fc-DR3; not shown: Fc part of the bought fusion
T2 sequence (looked up): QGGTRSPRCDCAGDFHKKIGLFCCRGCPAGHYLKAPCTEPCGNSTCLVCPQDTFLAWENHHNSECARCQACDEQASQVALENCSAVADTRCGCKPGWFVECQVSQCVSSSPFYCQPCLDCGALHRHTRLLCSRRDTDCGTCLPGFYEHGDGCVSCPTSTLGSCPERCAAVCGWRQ

B1: TL1W24 (His-TEV-hTL1A 72-251 F209A) (ligand)
chain: HHHHHHENLYFQGLKGQEFAPSHQQVYAPLRADGDKPRAHLTVVRQTPTQHFKNQFPALHWEHELGLAFTKNRMNYTNKFLLIPESGDYFIYSQVTFRGMTSECSEIRQAGRPNKPDSITVVITKVTDSYPEPTQLLMGTKSVCEVGSNWAQPIYLGAMFSLQEGDKLMVNVSDISLVDYTKEDKTFFGAFLL
notes: also called TL1W24 (F209A)
B2: TL1W130 (His-TEV-TL1A Y238R) (ligand)
chain: B1 chain with A151F, Y180R
notes: also called TL1W130 (Y238R)
B3: TL1W139 (His-TEV-TL1A E241Q) (ligand)
chain: B1 chain with A151F, E183Q
notes: also called TL1W139 (E241Q)
B4: TL1W134 (His-TEV-TL1A T239K) (ligand)
chain: B1 chain with A151F, T181K
notes: also called TL1W134 (T239K)
B5: TL1W42 (His-TEV-TL1A F114A) (ligand)
chain: B1 chain with F56A, A151F
notes: also called TL1W42 (F114A)
B6: TL1W101 (His-TEV-TL1A S176N) (ligand)
chain: B1 chain with S118N, A151F
notes: also called TL1W101 (S176N)
B7: TL1W40 (His-TEV-TL1A L123S) (ligand)
chain: B1 chain with L65S, A151F
notes: also called TL1W40 (L123S)
B8: TL1W39 (His-TEV-TL1A L123G) (ligand)
chain: B1 chain with L65G, A151F
notes: also called TL1W39 (L123G)
B9: TL1W135 (His-TEV-TL1A K240A) (ligand)
chain: B1 chain with A151F, K182A
notes: also called TL1W135 (K240A)
B10: TL1W33 (His-TEV-hTL1A 72-251 R103A) (ligand)
chain: B1 chain with R45A, A151F
notes: also called TL1W33 (R103A)
B11: TL1W133 (His-TEV-TL1A T239F) (ligand)
chain: B1 chain with A151F, T181F
notes: also called TL1W133 (T239F)
B12: TL1W91 (His-TEV-TL1A R156E) (ligand)
chain: B1 chain with R98E, A151F
notes: also called TL1W91 (R156E)
B13: TL1W41 (His-TEV-TL1A E120A) (ligand)
chain: B1 chain with E62A, A151F
notes: also called TL1W41 (E120A)
B14: TL1W86 (His-TEV-TL1A G124K) (ligand)
chain: B1 chain with G66K, A151F
notes: also called TL1W86 (G124K)
B15: TL1W43 (His-TEV-TL1A Y188S) (ligand)
chain: B1 chain with Y130S, A151F
notes: also called TL1W43 (Y188S)
B16: TL1W31 (GD: Single chain MMB in CBIS; His-TEV-hTL1A 72-251 R103Q) (ligand)
chain: B1 chain with R45Q, A151F
notes: also called TL1W31 (R103Q)
B17: TL1W25 (His-TEV-hTL1A 72-251 N207A) (ligand)
chain: B1 chain with N149A, A151F
notes: also called TL1W25 (N207A)
B18: TL1W37 (His-TEV-TL1A L123E) (ligand)
chain: B1 chain with L65E, A151F
notes: also called TL1W37 (L123E)
B19: TL1W138 (His-TEV-TL1A K240D) (ligand)
chain: B1 chain with A151F, K182D
notes: also called TL1W138 (K240D)
B20: TL1W33 (E241L) (ligand)
chain: B1 chain with A151F, E183L
notes: no entry of the listing holds E241L; also called E241L variant of His-TL1A
B21: TL1W88 (His-TEV-TL1A R156A) (ligand)
chain: B1 chain with R98A, A151F
notes: also called TL1W88 (R156A)
B22: TL1W83 (His-TEV-TL1A E120K) (ligand)
chain: B1 chain with E62K, A151F
notes: also called TL1W83 (E120K)
B23: TL1W29 (His-TEV-hTL1A 72-251 P189A) (ligand)
chain: B1 chain with P131A, A151F
notes: also called TL1W29 (P189A)
B24: TL1W128 (His-TEV-TL1A Y238S) (ligand)
chain: B1 chain with A151F, Y180S
notes: also called TL1W128 (Y238S)
B25: TL1W28 (His-TEV-hTL1A 72-251 E190G) (ligand)
chain: B1 chain with E132G, A151F
notes: also called TL1W28 (E190G)
B26: TL1W89 (His-TEV-TL1A R156Y) (ligand)
chain: B1 chain with R98Y, A151F
notes: also called TL1W89 (R156Y)
B27: TL1W30 (His-TEV-hTL1A 72-251 N112E) (ligand)
chain: B1 chain with N54E, A151F
notes: also called TL1W30 (N112E)
B28: TL1W32 (His-TEV-hTL1A 72-251 Y188A) (ligand)
chain: B1 chain with Y130A, A151F
notes: also called TL1W32 (Y188A)
B29: TL1W27 (His-TEV-hTL1A 72-251 T239E) (ligand)
chain: B1 chain with A151F, T181E
notes: also called TL1W27 (T239E)
B30: TL1W46 (His-TEV-TL1A T239W) (ligand)
chain: B1 chain with A151F, T181W
notes: also called TL1W46 (T239W)
B31: TL1W108 (His-TEV-TL1A S187A) (ligand)
chain: B1 chain with S129A, A151F
notes: also called TL1W108 (S187A)
B32: TL1W87 (His-TEV-TL1A G124D) (ligand)
chain: B1 chain with G66D, A151F
notes: also called TL1W87 (G124D)

In the first experiment the target is T1, DcR3. The experiment in a line: ELISA, DcR3.
Consider B1, for which a half-maximal effect (EC50) was put at 30.7 nM and the “Rel EC50” value was 6.7 ratio (head: nM).
As to B2, a half-maximal effect (EC50) was put at 16.9 nM and the “Rel EC50” value is 3.7 ratio (head: nM).
As to B3, it took 17.3 nM to reach a half-maximal effect (EC50) and the “Rel EC50” value is 3.8 ratio (head: nM).
As to B4, the response was half-maximal at 21.5 nM (EC50) and the “Rel EC50” value was 4.7 ratio (head: nM).
Take B5: the EC50 was 11.4 nM and the “Rel EC50” value was 2.5 ratio (head: nM).
The matching figures for B6: 20.4 nM and 4.4 ratio (head: nM).
As to B7, the 50% effective concentration (EC50) is 16.4 nM and the “Rel EC50” value is 3.6 ratio (head: nM).
The matching figures for B8: 38.2 nM and 8.3 ratio (head: nM).
Regarding B9, the EC50 is 8.5 nM and the “Rel EC50” value is 1.9 ratio (head: nM).
Turning to B10, a half-maximal response (EC50) required 3.3 nM and the “Rel EC50” value is 0.7 ratio (head: nM).
For B11, in that order: 10.8 nM and 2.3 ratio (head: nM).
Consider B12, for which the EC50 turned out to be 8.3 nM and the “Rel EC50” value is 1.8 ratio (head: nM).
For B13, in that order: 32.6 nM and 7.1 ratio (head: nM).
On to B14, for which it took 2.9 nM to reach a half-maximal effect (EC50) and the “Rel EC50” value was 0.6 ratio (head: nM).
The matching figures for B15: 72.2 nM and 15.7 ratio (head: nM).
The matching figures for B16: 2.5 nM and 0.5 ratio (head: nM).
Consider B17, for which the response was half-maximal at 3.7 nM (EC50) and the “Rel EC50” value was 0.8 ratio (head: nM).
With B18, the midpoint of the response, the EC50, lay at 24.3 nM and the “Rel EC50” value was 5.3 ratio (head: nM).
For B19, in that order: 59.5 nM and 12.9 ratio (head: nM).
For B20, in that order: 5.7 nM and 1.2 ratio (head: nM).
For B21, in that order: 13.5 nM and 2.9 ratio (head: nM).
With B22, the midpoint of the response, the EC50, lay at 2.2 nM and the “Rel EC50” value was 0.5 ratio (head: nM).
The matching figures for B23: 7.6 nM and 1.7 ratio (head: nM).
B24: the response was half-maximal at 10.5 nM (EC50) and the “Rel EC50” value was 2.3 ratio (head: nM).
The matching figures for B25: 5.7 nM and 1.2 ratio (head: nM).
On to B26, for which the EC50 was 8 nM and the “Rel EC50” value was 1.7 ratio (head: nM).
For B27, the half-maximal effective concentration (EC50) came out at 4.7 nM and the “Rel EC50” value is 1 ratio (head: nM).
As to B28, the response was half-maximal at 7.6 nM (EC50) and the “Rel EC50” value was 1.7 ratio (head: nM).
The matching figures for B29: 34.3 nM and 7.5 ratio (head: nM).

The next experiment addresses T2, Recombinant DR3-Fc (R&D Systems, cat. …). The experiment in a line: ELISA, DR3-Fc immobilized. How it is done: All ELISA-based measurements were collected in triplicate, and error values report the standard error between measurements. Recombinant DR3-Fc (R&D Systems, cat. #943-D3), dimeric MW˜92 kDa, was non-specifically immobilized onto plates (Nunc maxisorp, cat. #436110) in 100 μL DR3-Fc, diluted to 10 μg/mL onto a 96-well White Maxisorp plate (Nunc, cat #436110) (O/N, 4° C.). Plates were block for 1 hour at room temperature with 250 μl/well of casein buffer and blocking buffer was removed. 50 μL of TL1A variants were diluted in StartingBlock PBS (Thermo Fisher Scientific), at 25 μg/mL, diluting 3× over each well, according to the plate map description for 20160623) per well on a 96-well White Maxisorp plate (Nunc, cat #: 436110) (overnight at 4° C.).
Plates were washed three times with TBST. 100 μl/well polyclonal rabbit anti-human TL1A-biotin antibody (diluted 1:1000 in Starting Block PBS) was added and plates were incubated for 1 hour at room temperature with shaking at 150 rpm. TL1A-biotin antibody was removed and 100 μl/well streptavidin-HRP conjugate (diluted 1:10,000 in Starting Block PBS) was added to plates. Plates were incubated for 1 hour at room temperature with shaking at 150 rpm. Plates were washed three times with TBST. 100 μl/well POD Chemiluminescence substrate (Roche, cat #: 11582950001) was added immediately prior to reading plate luminescence using a Molecular Devices M5 plate reader with a delay setting of 100 ms.
Variants of TL1A were generated and tested for binding to DR3 and DcR3 by ELISA as described.
As to B1, the EC50 is 281 nM and the “Rel EC50” value was 10.7 ratio (head: nM).
For B5, in that order: 77.7 nM and 3 ratio (head: nM).
The matching figures for B30: 284 nM and 10.8 ratio (head: nM).
In the case of B7, the EC50 amounted to 30.7 nM and the “Rel EC50” value is 1.2 ratio (head: nM).
With B8, the EC50 came out at 184 nM and the “Rel EC50” value was 7 ratio (head: nM).
For B31, in that order: 39.1 nM and 1.5 ratio (head: nM).
For B10, in that order: 25 nM and 1 ratio (head: nM).
The matching figures for B13: 100 nM and 3.8 ratio (head: nM).
Consider B15, for which the EC50 worked out at 207 nM and the “Rel EC50” value was 7.9 ratio (head: nM).
Regarding B32, the concentration for a half-maximal effect (EC50) is 14.8 nM and the “Rel EC50” value is 0.6 ratio (head: nM).
For B16, in that order: 9.5 nM and 0.4 ratio (head: nM).
For B17, in that order: 13.4 nM and 0.5 ratio (head: nM).
As for B18, the 50% effective concentration (EC50) is 423 nM and the “Rel EC50” value was 16.1 ratio (head: nM).
The matching figures for B23: 710 nM and 27.1 ratio (head: nM).
For B25, in that order: 22.6 nM and 0.9 ratio (head: nM).
For B27, in that order: 16.4 nM and 0.6 ratio (head: nM).
Take B28: the EC50 was 565 nM and the “Rel EC50” value was 21.6 ratio (head: nM).
